According to article PMC4496704:

Key:
[1] = target: Recombinant mouse Hsp70 (70-kDa heat shock protein), wild type (mouse) (UniProt Q61696); test: cross-linking; without sulfatide (with or without lactosylceramide); 0.1 μM protein in PBS, 0.1% glutaraldehyde 10 min 30 °C, SDS-PAGE and Western blot
[2] = target: Hsp-N (ATPase domain of mouse Hsp70; lacks the peptide-binding domain) (mouse); test: as above

Row | Substance | stoichiometry N [1] | stoichiometry N [2]
1 | Recombinant mouse Hsp70 (70-kDa heat shock protein), wild type (from UniProt Q61696 1-641) (natural protein) | 2 | –
2 | Hsp-N (ATPase domain of mouse Hsp70; lacks the peptide-binding domain) (domain or fragment) | – | 2
